# Assay results as given in PMC2734569, “Functional mapping of the fission yeast DNA polymerase δ B-subunit Cdc1 by site-directed and random pentapeptide insertion mutagenesis” (BMC Molecular Biology, 2009).
# T1: Cdc1-E1 (Schizosaccharomyces pombe, UniProt P87324 1-462, Ser-GlyValProGlnSer-Asp)
# T1 construct: Cdc1, S. pombe, with a pentapeptide inserted after residue 66; source: yeast two-hybrid fusion, in S. cerevisiae CTY10-5d
# T1 sequence (looked up): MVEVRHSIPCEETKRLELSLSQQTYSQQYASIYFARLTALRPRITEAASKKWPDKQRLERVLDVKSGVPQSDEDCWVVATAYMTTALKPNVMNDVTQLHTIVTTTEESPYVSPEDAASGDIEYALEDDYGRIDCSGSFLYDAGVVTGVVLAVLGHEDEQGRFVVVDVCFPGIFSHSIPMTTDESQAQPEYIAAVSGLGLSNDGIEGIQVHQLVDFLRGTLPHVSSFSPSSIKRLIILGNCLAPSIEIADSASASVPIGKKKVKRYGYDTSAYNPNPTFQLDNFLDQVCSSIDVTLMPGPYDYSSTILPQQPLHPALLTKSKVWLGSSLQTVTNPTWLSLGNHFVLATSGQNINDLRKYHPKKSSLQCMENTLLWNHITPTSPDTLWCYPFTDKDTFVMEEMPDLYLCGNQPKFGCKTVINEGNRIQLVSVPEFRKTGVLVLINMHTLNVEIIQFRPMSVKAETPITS
# T2: Cdc1-E5 (Schizosaccharomyces pombe, UniProt P87324 1-462, Val-MetGlyTyrProVal-Met)
# T2 construct: Cdc1, S. pombe, with a pentapeptide inserted after residue 86; source: yeast two-hybrid fusion, in S. cerevisiae CTY10-5d
# T2 sequence (looked up): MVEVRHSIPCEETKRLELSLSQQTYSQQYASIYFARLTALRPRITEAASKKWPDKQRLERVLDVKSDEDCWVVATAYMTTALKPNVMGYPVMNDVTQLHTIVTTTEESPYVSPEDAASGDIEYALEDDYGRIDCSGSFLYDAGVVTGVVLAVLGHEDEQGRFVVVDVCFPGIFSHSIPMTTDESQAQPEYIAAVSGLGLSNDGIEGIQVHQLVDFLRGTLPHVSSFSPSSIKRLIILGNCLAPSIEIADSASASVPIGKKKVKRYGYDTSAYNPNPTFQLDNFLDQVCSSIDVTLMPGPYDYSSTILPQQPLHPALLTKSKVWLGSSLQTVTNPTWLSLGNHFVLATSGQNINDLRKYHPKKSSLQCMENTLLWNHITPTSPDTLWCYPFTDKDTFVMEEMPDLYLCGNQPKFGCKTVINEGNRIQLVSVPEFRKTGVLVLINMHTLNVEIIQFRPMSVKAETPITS
# T3: Cdc1-J6 (Schizosaccharomyces pombe, UniProt P87324 1-462, Tyr-GlyValProHisTyr-Gly)
# T3 construct: Cdc1, S. pombe, with a pentapeptide inserted after residue 124; source: yeast two-hybrid fusion, in S. cerevisiae CTY10-5d
# T3 sequence (looked up): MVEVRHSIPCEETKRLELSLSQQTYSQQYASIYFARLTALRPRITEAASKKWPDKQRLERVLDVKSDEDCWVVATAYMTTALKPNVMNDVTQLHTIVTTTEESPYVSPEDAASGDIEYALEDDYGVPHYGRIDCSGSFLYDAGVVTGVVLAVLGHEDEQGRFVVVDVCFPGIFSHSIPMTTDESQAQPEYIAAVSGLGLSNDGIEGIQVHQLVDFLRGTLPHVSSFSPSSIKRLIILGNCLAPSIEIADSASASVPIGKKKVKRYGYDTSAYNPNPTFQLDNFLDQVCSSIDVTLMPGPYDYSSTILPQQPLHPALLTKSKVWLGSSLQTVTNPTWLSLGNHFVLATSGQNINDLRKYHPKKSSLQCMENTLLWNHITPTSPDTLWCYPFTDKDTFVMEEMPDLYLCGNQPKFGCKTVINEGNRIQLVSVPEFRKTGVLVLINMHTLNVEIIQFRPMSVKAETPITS
# T4: Cdc1-J1 (Schizosaccharomyces pombe, UniProt P87324 1-462, Thr-GlyValProLeuThr-Gly)
# T4 construct: Cdc1, S. pombe, with a pentapeptide inserted after residue 141; source: yeast two-hybrid fusion, in S. cerevisiae CTY10-5d
# T4 sequence (looked up): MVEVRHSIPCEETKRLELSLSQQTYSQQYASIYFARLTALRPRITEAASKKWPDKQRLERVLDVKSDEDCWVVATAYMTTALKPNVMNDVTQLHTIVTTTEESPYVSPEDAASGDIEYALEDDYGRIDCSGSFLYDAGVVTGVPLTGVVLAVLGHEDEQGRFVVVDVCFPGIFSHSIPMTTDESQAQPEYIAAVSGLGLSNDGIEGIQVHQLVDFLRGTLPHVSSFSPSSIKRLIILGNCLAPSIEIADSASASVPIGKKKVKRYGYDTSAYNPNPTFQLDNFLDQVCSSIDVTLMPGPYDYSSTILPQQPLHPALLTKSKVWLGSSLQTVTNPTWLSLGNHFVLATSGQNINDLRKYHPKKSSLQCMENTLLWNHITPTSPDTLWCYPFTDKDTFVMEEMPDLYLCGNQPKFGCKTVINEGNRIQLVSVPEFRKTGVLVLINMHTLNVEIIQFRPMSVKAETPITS
# What was measured:
# Experiment in all cases: two-hybrid; LexA-Cdc1 bait (pBTM116 or pBTM116BN) with Gal4-Pol3 prey and co-expressed c-myc-tagged Cdc27 (pAA-Cdc27) in S. cerevisiae CTY10-5d; ONPG liquid culture beta-galactosidase assay, mean of triplicates, as percent of wild-type Cdc1
# Settings in all cases: partners not purified
# Cdc1-E1 = biological target: T1, Cdc1-E1
# Cdc1-E5 = biological target: T2, Cdc1-E5
# Cdc1-J6 = biological target: T3, Cdc1-J6
# Cdc1-J1 = biological target: T4, Cdc1-J1
binder,measurement,setting,value
"Pol3 (fission yeast DNA polymerase delta catalytic subunit) (natural protein, Schizosaccharomyces pombe, UniProt P30316 1-1086, looked up, DNA polymerase delta catalytic subunit Pol3, S. pombe; prey plasmid named pACT-Pol3 in the results and pGAD2F-Pol3 in the methods; also called Gal4-Pol3; pACT-Pol3; source: yeast two-hybrid fusion, in S. cerevisiae CTY10-5d) MTDRSSNEGVVLNKENYPFPRRNGSIHGEITDVKRRRLSERNGYGDKKGSSSKEKTSSFEDELAEYASQLDQDEIKSSKDQQWQRPALPAINPEKDDIYFQQIDSEEFTEGSVPSIRLFGVTDNGNSILVHVVGFLPYFYVKAPVGFRPEMLERFTQDLDATCNGGVIDHCIIEMKENLYGFQGNEKSPFIKIFTTNPRILSRARNVFERGEFNFEELFPVGVGVTTFESNTQYLLRFMIDCDVVGMNWIHLPASKYQFRYQNRVSNCQIEAWINYKDLISLPAEGQWSKMAPLRIMSFDIECAGRKGVFPDPSIDPVIQIASIVTQYGDSTPFVRNVFCVDTCSQIVGTQVYEFQNQAEMLSSWSKFVRDVDPDVLIGYNICNFDIPYLLDRAKSLRIHNFPLLGRIHNFFSVAKETTFSSKAYGTRESKTTSIPGRLQLDMLQVMQRDFKLRSYSLNAVCSQFLGEQKEDVHYSIITDLQNGTADSRRRLAIYCLKDAYLPQRLMDKLMCFVNYTEMARVTGVPFNFLLARGQQIKVISQLFRKALQHDLVVPNIRVNGTDEQYEGATVIEPIKGYYDTPIATLDFSSLYPSIMQAHNLCYTTLLDSNTAELLKLKQDVDYSVTPNGDYFVKPHVRKGLLPIILADLLNARKKAKADLKKETDPFKKAVLDGRQLALKVSANSVYGFTGATNGRLPCLAISSSVTSYGRQMIEKTKDVVEKRYRIENGYSHDAVVIYGDTDSVMVKFGVKTLPEAMKLGEEAANYVSDQFPNPIKLEFEKVYFPYLLISKKRYAGLFWTRTDTYDKMDSKGIETVRRDNCPLVSYVIDTALRKMLIDQDVEGAQLFTKKVISDLLQNKIDMSQLVITKALSKTDYAAKMAHVELAERMRKRDAGSAPAIGDRVAYVIIKGAQGDQFYMRSEDPIYVLENNIPIDAKYYLENQLSKPLLRIFEPILGEKASSLLHGDHTRTISMAAPSVGGIMKFAVKVETCLGCKAPIKKGKTALCENCLNRSAELYQRQVAQVNDLEVRFARLWTQCQRCQGSMHQDVICTSRDCPIFYMRIAEHKKLQQSVDLLKRFDEMSW","two-hybrid beta-galactosidase activity, % of wild-type Cdc1",Cdc1-E1,65%
same,"two-hybrid beta-galactosidase activity, % of wild-type Cdc1",Cdc1-E5,48%
same,"two-hybrid beta-galactosidase activity, % of wild-type Cdc1",Cdc1-J6,< 1%
same,"two-hybrid beta-galactosidase activity, % of wild-type Cdc1",Cdc1-J1,< 1%
